# Laboratory results as given in paper PMC8173049.
# Assays:
# [1] = target: HAdV-B35 capsid (replication-defective, E1-deleted vector particle with a YFP expression cassette) (human adenovirus B35); test: SPR; BIAcore 3000; HAdV particles amine-coupled to a CM5 chip (3,500-4,000 RU, diluted in acetate buffer pH 4); lactoferrin 6.25-200 nM injected at 30 µl/min, 180 s association, 600 s dissociation; HBS-EP buffer (10 mM HEPES, 150 mM NaCl, 3 mM EDTA, 0.005% polysorbate 20, pH 7.4); bivalent fitting model
# [2] = target: HAdV-C5 capsid (replication-defective, E1-deleted vector particle with a GFP expression cassette) (human adenovirus C5) (UniProt P04133); test: as above
substance,measurement,setting,value
human lactoferrin (natural protein),Kd,[1],54 µM
same,Kd,[2],0.8 µM
